The results in this text go back to patent US20090318342A1, “Compounds” (IMPERIAL INNOVATIONS LIMITED, priority 2005, published 2009).

This assay has as its target T1, ADAMTS-5 (Homo sapiens, UniProt Q9UNA0).
T1 sequence (Q9UNA0 262-930): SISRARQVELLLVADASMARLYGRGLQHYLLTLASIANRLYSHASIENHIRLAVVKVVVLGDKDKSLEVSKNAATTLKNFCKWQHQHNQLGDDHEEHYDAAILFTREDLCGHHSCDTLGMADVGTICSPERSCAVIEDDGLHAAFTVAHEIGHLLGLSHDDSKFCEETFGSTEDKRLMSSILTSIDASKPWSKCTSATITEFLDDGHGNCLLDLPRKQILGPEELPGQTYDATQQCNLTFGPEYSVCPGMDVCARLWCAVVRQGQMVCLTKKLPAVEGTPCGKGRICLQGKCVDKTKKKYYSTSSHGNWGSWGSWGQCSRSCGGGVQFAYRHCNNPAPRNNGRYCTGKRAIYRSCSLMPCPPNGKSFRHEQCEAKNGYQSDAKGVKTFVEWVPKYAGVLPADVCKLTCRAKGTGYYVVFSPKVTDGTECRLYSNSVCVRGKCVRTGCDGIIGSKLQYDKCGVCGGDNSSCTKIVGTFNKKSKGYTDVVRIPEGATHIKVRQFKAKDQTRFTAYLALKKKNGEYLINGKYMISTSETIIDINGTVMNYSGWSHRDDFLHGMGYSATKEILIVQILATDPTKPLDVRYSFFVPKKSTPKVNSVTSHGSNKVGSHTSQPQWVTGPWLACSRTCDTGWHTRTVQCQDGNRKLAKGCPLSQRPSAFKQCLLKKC
As to the kind of experiment: Aggrecanase assay with GST-IGD-FLAG substrate, ADAMTS-5. In kind it is biochemical. As to conditions: for Ki: Table 3, GST-IGD-FLAG substrate, pH 7.5, 37° C., read-out: Ki(app) ADAMTS-5. As to the method:
FIG. 8. Graphs of Ki(app) determination. The GST-IGD-FLAG substrate assay was used to determine the Ki(app) of the N-terminal reactive site mutants against ADAMTS-4 (filled squares) and ADAMTS-5 (open circles).
The substrate containing glutathione S-transferase (GST) fused with the interglobular domain (IGD) of aggrecan (Tyr^331 to Gly^457) attached with a C-terminal FLAG sequence (GST-IGD-FLAG) was prepared by cloning it into pGEX-4T1 at the EcoR1 and Xho1 cloning sites. This substrate was expressed in E. coli strain BL-21 (non-DE3) transfected with the pGEX4T1 GST-IGD-FLAG plasmid by induction with […] isopropyl-beta-D-thiogalactopyranoside (IPTG). After induction, bacteria were collected by centrifugation and resuspended in 20 ml of 50 mM Tris-HCl (pH 8.0), 150 mM NaCl, 0.02% NaN3, […] DTT, […] EDTA with proteinase inhibitor cocktail set II inhibitors (Merck, Nottingham, UK). The resuspended bacteria were then disrupted mechanically using a French Press (5×1500 Psi). After centrifugation at 24,000 g (30 min, 4° C.), the supernatant, containing the expressed GST-IGD-FLAG, was applied to a glutathione-Sepharose 4B column (Qiagen, Crawley, UK). The column was washed with 0.5 M NaCl, 50 mM Tris-HCl (pH 8.0) and eluted with 10 mM reduced glutathione, 50 mM Tris-HCl (pH 8.0). The eluted material was dialysed three times against 10 volumes of 50 mM Tris-HCl (pH 8.0), 150 mM NaCl. […] The concentration of intact substrate (52 kDa) was determined by comparison with Coomassie Brilliant Blue staining of known amounts of bovine serum albumin (GE Healthsciences, Buckinghampshire, UK). […]
Aggrecanase assays were carried out in 50 mM Tris HCl pH 7.5, 150 mM NaCl, 10 mM CaCl2, 0.02% NaN3, 0.05% Brij-35 at 37° C. […] The stained gels were then scanned using a scanning densitometer (Biorad GS-710, Hemel Hempstead, UK) and the band intensity of the product (17 kDa) quantified using the 1D Phoretix quantification software (Nonlinear Dynamics, Newcastle upon Tyne, UK). Background subtraction was done using the rolling ball method, and band intensity expressed as pixel volumes.

B1: N-TIMP-3: N-terminal inhibitory domain of TIMP-3 (residues 1 to 121), C-terminally His-tagged, wild-type (protein)
chain: CTCSPSHPQDAFCNSDIVIRAKVVGKKLVKEGPFGTLVYTIKQMKMYRGFTKMPHVQYIHTEASESLCGLKLEVNKYQYLLTGRVYDGKMYTGLCNFVERWDQLTLSQRKGLNYRYHLGCN
With B1, the Ki was 0.4 ± 0.2 nM.

B2: -1A: N-TIMP-3 mutant with the addition of an N-terminal alanine extension (-1A) (protein)
chain: ACTCSPSHPQDAFCNSDIVIRAKVVGKKLVKEGPFGTLVYTIKQMKMYRGFTKMPHVQYIHTEASESLCGLKLEVNKYQYLLTGRVYDGKMYTGLCNFVERWDQLTLSQRKGLNYRYHLGCN
Take B2: the Ki was 1.9 ± 0.6 nM.

B3: (-2A)N-TIMP-3: N-TIMP-3 mutant with two alanine residues on the N-terminal side of Cysteine1 of the TIMP-3 sequence (protein)
chain: AACTCSPSHPQDAFCNSDIVIRAKVVGKKLVKEGPFGTLVYTIKQMKMYRGFTKMPHVQYIHTEASESLCGLKLEVNKYQYLLTGRVYDGKMYTGLCNFVERWDQLTLSQRKGLNYRYHLGCN
As to B3, the “Potency for ADAMTS-5 relative to ADAMTS-4” value (ADAMTS-5 versus ADAMTS-4) is “about 45 times”.
